Data published in US20170334973A1 (INTEGRATED BIOTHERAPEUTICS, published 2017).

T1: SUDV VLP (Sudan virus (SUDV), UniProt Q66814 33-676)
T1 sequence: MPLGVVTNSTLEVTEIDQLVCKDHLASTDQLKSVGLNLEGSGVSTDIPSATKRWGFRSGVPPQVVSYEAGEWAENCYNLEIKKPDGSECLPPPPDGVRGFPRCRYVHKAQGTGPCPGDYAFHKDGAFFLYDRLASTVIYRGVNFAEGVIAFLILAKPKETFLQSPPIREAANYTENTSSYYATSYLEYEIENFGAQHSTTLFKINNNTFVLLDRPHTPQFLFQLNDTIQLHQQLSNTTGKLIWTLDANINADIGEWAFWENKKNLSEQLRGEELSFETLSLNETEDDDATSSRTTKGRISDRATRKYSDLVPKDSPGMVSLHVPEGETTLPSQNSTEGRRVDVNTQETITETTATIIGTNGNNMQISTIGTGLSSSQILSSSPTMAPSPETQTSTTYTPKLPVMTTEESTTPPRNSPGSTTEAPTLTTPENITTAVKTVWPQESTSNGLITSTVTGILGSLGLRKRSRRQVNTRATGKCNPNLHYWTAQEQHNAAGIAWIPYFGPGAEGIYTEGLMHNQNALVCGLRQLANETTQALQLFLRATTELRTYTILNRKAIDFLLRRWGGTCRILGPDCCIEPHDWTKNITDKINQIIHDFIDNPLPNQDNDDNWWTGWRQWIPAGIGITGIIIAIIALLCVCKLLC

T2: EBOV VLP (Ebola virus (EBOV), UniProt Q05320 33-676)
T2 sequence: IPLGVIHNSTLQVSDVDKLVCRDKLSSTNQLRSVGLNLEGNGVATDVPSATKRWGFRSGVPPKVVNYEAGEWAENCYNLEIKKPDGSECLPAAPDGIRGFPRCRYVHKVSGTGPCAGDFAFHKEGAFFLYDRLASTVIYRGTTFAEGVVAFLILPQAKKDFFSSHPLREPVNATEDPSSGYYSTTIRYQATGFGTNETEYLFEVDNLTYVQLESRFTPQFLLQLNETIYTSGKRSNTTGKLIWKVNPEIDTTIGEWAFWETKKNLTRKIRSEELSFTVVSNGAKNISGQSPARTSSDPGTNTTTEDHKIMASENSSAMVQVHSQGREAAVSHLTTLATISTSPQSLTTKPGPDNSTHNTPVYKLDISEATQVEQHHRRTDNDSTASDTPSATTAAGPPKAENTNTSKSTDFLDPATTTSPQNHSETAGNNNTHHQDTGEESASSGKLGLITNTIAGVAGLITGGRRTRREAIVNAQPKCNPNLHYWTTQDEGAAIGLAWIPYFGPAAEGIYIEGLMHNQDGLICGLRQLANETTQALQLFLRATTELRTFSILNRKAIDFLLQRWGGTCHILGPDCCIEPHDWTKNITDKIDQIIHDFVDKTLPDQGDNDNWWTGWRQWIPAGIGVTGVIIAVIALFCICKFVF

T3: MARV (Musoke strain) GP (Marburg virus (MARV), Musoke strain, UniProt P35253 19-648)
T3 sequence: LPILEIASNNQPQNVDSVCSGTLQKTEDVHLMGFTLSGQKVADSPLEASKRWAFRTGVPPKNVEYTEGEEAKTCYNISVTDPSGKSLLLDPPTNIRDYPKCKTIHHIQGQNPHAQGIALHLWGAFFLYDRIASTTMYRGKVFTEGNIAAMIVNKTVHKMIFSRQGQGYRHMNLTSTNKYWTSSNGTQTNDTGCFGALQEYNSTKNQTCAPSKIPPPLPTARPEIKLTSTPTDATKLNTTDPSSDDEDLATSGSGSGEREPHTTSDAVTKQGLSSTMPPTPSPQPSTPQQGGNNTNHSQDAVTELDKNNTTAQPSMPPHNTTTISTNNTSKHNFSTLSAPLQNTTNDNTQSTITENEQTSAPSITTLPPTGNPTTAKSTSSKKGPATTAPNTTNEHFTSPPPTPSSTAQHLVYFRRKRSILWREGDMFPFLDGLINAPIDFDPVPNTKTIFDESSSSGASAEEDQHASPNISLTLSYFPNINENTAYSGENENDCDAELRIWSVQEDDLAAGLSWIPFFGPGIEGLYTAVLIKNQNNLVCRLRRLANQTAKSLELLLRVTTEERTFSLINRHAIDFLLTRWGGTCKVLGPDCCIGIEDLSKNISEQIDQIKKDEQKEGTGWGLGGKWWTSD

T4: MARV VLP (Marburg virus (MARV), UniProt P35253 19-681)
T4 sequence: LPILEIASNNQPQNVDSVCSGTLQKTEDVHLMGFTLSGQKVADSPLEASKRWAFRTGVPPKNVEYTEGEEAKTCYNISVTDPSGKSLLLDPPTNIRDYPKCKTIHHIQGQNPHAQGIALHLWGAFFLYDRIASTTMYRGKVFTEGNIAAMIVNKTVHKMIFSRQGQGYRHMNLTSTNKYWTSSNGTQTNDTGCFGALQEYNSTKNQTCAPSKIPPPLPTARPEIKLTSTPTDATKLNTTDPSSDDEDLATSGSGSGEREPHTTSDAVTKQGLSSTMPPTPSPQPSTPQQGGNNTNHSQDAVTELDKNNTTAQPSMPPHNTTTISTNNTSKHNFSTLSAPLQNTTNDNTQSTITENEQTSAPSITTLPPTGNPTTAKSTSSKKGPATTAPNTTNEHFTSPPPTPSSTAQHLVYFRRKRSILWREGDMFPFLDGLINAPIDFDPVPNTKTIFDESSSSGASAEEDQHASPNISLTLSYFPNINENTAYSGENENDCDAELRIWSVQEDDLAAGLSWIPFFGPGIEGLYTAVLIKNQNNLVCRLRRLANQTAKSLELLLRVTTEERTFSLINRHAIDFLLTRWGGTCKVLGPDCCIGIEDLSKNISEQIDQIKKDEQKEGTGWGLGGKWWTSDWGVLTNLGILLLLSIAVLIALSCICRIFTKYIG

T5: EBOV GPcl (Ebola virus (EBOV), UniProt Q05320 33-200; Q05320 502-632)
T5 sequence 1: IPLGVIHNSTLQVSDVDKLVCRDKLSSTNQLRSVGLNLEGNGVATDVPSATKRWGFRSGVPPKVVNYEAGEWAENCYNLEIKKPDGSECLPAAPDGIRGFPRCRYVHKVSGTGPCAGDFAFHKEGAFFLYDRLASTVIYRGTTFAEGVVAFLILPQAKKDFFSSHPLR
T5 sequence 2: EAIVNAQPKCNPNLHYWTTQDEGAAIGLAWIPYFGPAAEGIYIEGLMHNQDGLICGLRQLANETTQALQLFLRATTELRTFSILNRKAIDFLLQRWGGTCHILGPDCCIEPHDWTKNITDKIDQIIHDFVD

T6: EBOV soluble GP (sGP) (Ebola virus (EBOV), UniProt P60170 33-324)
T6 sequence: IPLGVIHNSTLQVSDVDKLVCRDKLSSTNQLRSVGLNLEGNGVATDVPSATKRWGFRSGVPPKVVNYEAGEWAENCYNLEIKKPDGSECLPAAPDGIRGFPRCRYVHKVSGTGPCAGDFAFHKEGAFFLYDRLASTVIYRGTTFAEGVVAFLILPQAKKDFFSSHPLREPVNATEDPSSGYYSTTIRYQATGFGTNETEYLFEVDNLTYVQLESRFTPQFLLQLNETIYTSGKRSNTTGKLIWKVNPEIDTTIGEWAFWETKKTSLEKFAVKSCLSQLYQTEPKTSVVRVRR


Key:
[1] = target: T1, SUDV VLP; experiment: ELISA
[2] = target: T2, EBOV VLP; experiment: ELISA
[3] = target: T3, MARV (Musoke strain) GP; experiment: GP ELISA, purified mAb
[4] = target: T4, MARV VLP; experiment: ELISA
[5] = target: T5, EBOV GPcl; experiment: ELISA
[6] = target: T6, EBOV soluble GP (sGP); experiment: ELISA

Binder | EC50 [1] | EC50 [2] | binding result [3] | EC50 [4] | binding result [5] | binding result [6] | EC50 [3]
FVM01P (antibody, V domains shown) VH: QVQLQESGPGLVKPSETLSLTCTVSGASISNYRWNWIRQPPGKGLEWIGEINGYSGSTNYNPSLKSRVTISKDASKNQFSLKLTSVTAADTAVYYCPIIGGFTLEWFDVWGPGVLVTVSS VL: DVVLTQSPSSLSASVGDRVTITCRASQGIRNYLNWYQQKPRKAPKLLIYAASSLQSGVPSRFSGSGSGTEFTLTISSLQAEDFATYYCLQGYRTPFTFGPGTKLDIKR | 0.319 nM | 0.459 nM | no binding |  |  |  | 
FVM03 (antibody, V domains shown) VH: QVQLQESGPVLVKPSETLSLTCAVSGYSISSAYAWSWIRQPPGKGLEWVGYVGSSSDYNPSLKSRVTISRDTSKNRIFLNLRSLTAADTAVYYCARDRANNSMDVWGRGVLVTVSS VL: EIVLTQSPDSLGVSLGERVTINCKSSQSLLYSSNNKNYLAWYQQKPGQAPKLLIYWASTRESGVPNRFSGSGSGTDFTLTISGLQAEDVAVYYCQQYYSTPLTFGQGTKVEIKR |  |  |  | 0.793 nM |  |  | 
FVM09 (antibody, V domains shown) VH: EVQLVQSGAEVKRPGESLTISCKTSGYSFTDSWVAWVRQMPGKGLEWLGSIYPGDSETKYNPSFQGHVTISADKSVTTTYLKWSSLKASDTATYYCVKGSETWGQGVLVTVSS VL: QLVLTQPASLSASPGASASLTCTFSGGINVAGYNILWYQQKAGSPPRYLLRYKSDSTKDQGSGVPSRFSGSKDASANTGILRISGLQSEDEADYYCAIGHSSGWIFGGGTRLTVL | 21.3 nM | 24.2 nM | no binding |  | no binding |  | 
FVM13 (antibody, V domains shown) VH: EVQLVQSGAEVKRPGESLKISCKTSGYTFTSSWISWVRQMPGKGLEWLGSIYPGDSDTRYNPSFQGHVTISADTSIITTHLQWSSLKASDTATYYCVKGSETWGQGVLVTVSS VL: KPMLTQPTSLSASPGASASLTCTFSGGINVAGYNILWYQQKAGSPPRYLLRYKSDSTKDQGSGVPSRFSGSKDASANTGILRISGLQSEDEADYYCAIGHSSGWIFGGGTRLTVL | 0.144 nM | 0.198 nM | no binding |  |  |  | 
FVM20 (antibody, V domains shown) VH: EVQLVESGAEVKRPGESLTISCKTSGYSFTGSWISWVRQMPGKGLEWLGSIYPGDSETKYNPSFQGHVTISADKSVTTTYLKWSSLKASDTATYYCVKGSETWGQGVLVTVSS VL: NFMLTQSASLSASPGASASLTCTFSGGINVAGYHIFWYQQNPGSPPRYLLRYKSDSEKDQGSGVPSRFSGSKDASANTGILRISGLQSEDEADYYCAIGHSSGWIFGGGTRLTVL | 32.9 nM | 1.29 nM | no binding |  |  |  | 
FVM02P (antibody, V domains shown) VH: EVQLVESGGGLVQPGGSLRLSCAASGFTGFTFSDYAFYWVRQAPGKGLEWVGFIRGKAYGGTADYAASVKGRFTISRDNSKNTAYLQMSSLKTEDSAVYYCTSQGVTVATPYHWGQGVLVTVSS VL: DIVLTQSPLSLPVTPGEPASISCRSSQSLLHSGGKTYLYWYLQKPGQSPQLLIHEVSNRASGVPDRFSGSGSGTDFTLKISRVEAEDVGVYYCMQGIQLPLTFGGGTKVEIKR | 0.351 nM | 0.489 nM |  | 7.73 nM |  | no binding | 1 µg/mL
